We go through one molecule from paper PMC11935020.

The experiment addresses improved light‐induced dimerizing protein (iLID) (Avena sativa | Escherichia coli). The experiment can be described thus: recruitment to the GUV membrane, fluorescence microscopy; 450 nM iLID (His tag on DGS–NTA (Ni) lipids, inner membrane) and 100 nM SspB–mCherry encapsulated in POPC GUVs with 5% DGS–NTA (Ni); external blue light for 15 min.

B1: SspB Nano–mCherry (stringent starvation protein B, Nano, fused to mCherry), P0AFZ3 1-165 (natural protein)
chain: SSPKRPKLLREYYDWLVDNSFTPYLVVDATYLGVNVPVEYVKDGQIVLNLSASATGNLQLTNDFIQFNARFKGVSRELYIPMGAALAIYARENGDGVMFEPEEIYDELNI
modifications: not checked
With B1, the ratio of mCherry intensity at the GUV membrane to luminal intensity was found to be 3 fold.
